Legend:
Experiment in all cases: purified protein, by the assay type
Settings in all cases: other: 2 μM Ht-VanB, 400 μM NADH, air-saturated HEPES (I = 0.1M), pH 7.5, 25° C, VanA 0.4 μM for vanillate, 1 μM for syringate and 3MGA
[1] = substrate: COc1cc(C(=O)O)cc(O)c1O
Method: (§1) In evaluating the parameters for VA, 0.4 μM VanA was used to ensure steady-state conditions at low concentrations of VA.
(§2) Steady-state kinetic analyses: Kinetic assays were performed by monitoring the consumption of O2 using a Clark-type polarographic O2 electrode OXYG1 (Hansatech) connected to a circulating water bath. Assays with the exception of GalA were performed in 1 mL of air-saturated 40 mM HEPES, 80 mM NaCl (I=0.1 M, pH 7.5) at 25° C. GalA assays were performed in 40 mM MOPS, 80 mM NaCl (I=0.1 M, pH 7.0) at 30° C. The electrode was calibrated daily according to the manufacturer's instructions using air-saturated buffer and water depleted of 02 via addition of sodium hydrosulfite. Stock solutions were prepared fresh daily. The background rate of O2-consumption was recorded prior to initiating the reaction and was subtracted from the measured reaction rate. Steady-state kinetic parameters were evaluated by fitting the Michaelis-Menten equation to the data using the least-squares fitting of LEONORA.
(§3) For VanAB, the standard reaction contained 1 μM VanA, 2 μM Ht-VanB, and 400 μM NADH. […] Stock solutions of the substrates were made in dimethylsulfoxide (DMSO). The final concentration of DMSO in the assay solutions was <1% (v/v). For PcaHG, the standard reaction contained 250 μM PCA. The reaction was initiated by adding 0.1 μM PcaHG. […] The reaction was initiated by adding 0.05 μM GalA.

[2] = substrate: COc1cc(C(=O)O)ccc1O
Method: as §1, §2, §3

[3] = substrate: COc1cc(C(=O)O)cc(OC)c1O

B1: VanAB (vanillate O-demethylase) (Pseudomonas putida KT2440) (protein)
chain: MYPKNTWYVACTPDEIATKPLGRQICGEKIVFYRARENQVAAVEDFCPHRGAPLSLGYVEDGNLVCGYHGLVMGCDGKTVSMPGQRVRGFPCNKTFAAVERYGFIWVWPGDQAQADPALIPHLEWAVSDEWAYGGGLFHIGCDYRLMIDNLMDLTHETYVHASSIGQKEIDEAPPVTTVTGDEVVTARHMENIMAPPFWRMALRGNGLADDVPVDRWQICRFTPPSHVLIEVGVAHAGKGGYHAEAQHKASSIVVDFITPESDTSIWYFWGMARNFAAHDQTLTDNIREGQGKIFSEDLEMLERQQQNLLAHPERNLLKLNIDAGGVQSRKVLERIIAQERAPQPQLIATSANPAGKLP
Km [1]: 150 ± 20 µM
kcat [1]: 0.53 ± 0.02 s⁻¹
kcat/Km [1]: 0.36 ± 0.04 ×10^4 s^−1 · M^−1
Km [2]: 4 ± 1 µM
Km [3]: 16 ± 2 µM
kcat [3]: 0.89 ± 0.03 s⁻¹
kcat/Km [3]: 5.5 ± 0.6 ×10^4 s^−1 · M^−1

From patent publication US11807873B2, “Conversion of S-lignin compounds to useful intermediates” (Alliance for Sustainable Energy, LLC, priority 2020, dated 2023)
